Our source for the binding signal (fold weaker vs N1), Kd and binding signal (fold increase in Kd vs N1) values is publication PMC4344526.

The test system of data set [1] is Csy complex (Csy1-4 + crRNA, Type I-F) (Pseudomonas aeruginosa PA14). As to the kind of experiment: EMSA. The settings on record: EMSA: 20 mM HEPES pH 7.5, 100 mM KCl, 5% glycerol, 1 mM TCEP, 2 mM EDTA, 37 C, 15 min (competition 5 min), SPR: 20 mM HEPES pH 7.5, 100 mM KCl, 0.02%.
Data set [2] shares this test system. As to the kind of experiment: SPR. Particulars: ka 1.9e7 M-1 s-1, half-life 6.3 s, same as non-target, EMSA Kd >2 orders higher, EMSA: 20 mM HEPES pH 7.5, 100 mM KCl, 5% glycerol, 1 mM TCEP, 2 mM EDTA, 37 C, 15 min (competition 5 min), SPR: 20 mM HEPES pH 7.5, 100 mM KCl, 0.02%. (A gel shift assay detects complexes by their altered migration in electrophoresis.)

Some results are limits rather than exact numbers.

For the substance “dsDNA target, T-A/T-A PAM, duplexed (EMSA)”, the binding signal (fold weaker vs N1) in data set [1] was determined as 100.

On to ssDNA target, protospacer + GG PAM, for which, in data set [1], the Kd turned out to be 0.5 nM.

With “dsDNA target, protospacer + T-A/T-A PAM (SPR)”, the Kd in data set [2] came out at 6 nM.

Consider dsDNA target, protospacer + G-C/G-C PAM, for which, in data set [1], the dissociation constant (Kd) was 1 nM.

As to dsDNA target, inosine PAM, in data set [1] (both PAM guanines replaced by inosine), the binding signal (fold increase in Kd vs N1) was > 1000.

In the case of dsDNA target, 7-deazaguanine PAM, in data set [1] (both PAM guanines replaced by 7-deazaguanine), the binding signal (fold increase in Kd vs N1) was found to be 120.

As a reminder, the Kd is a measure of binding affinity in units of concentration.
